From patent publication US20090208496A1 (BIOTEST, published 2009)
Positions count from the first letter of the chain named. Numbers in names are those of the source.

B1: humanized B-F5 version H37L/L4L (antibody, V domains shown)
VH: EEQLVESGGGLVKPGGSLRLSCAASGFSFSDCRMYWLRQAPGKGLEWIGVISVKSENYGANYAESVRGRFTISRDDSKNTVYLQMNSLKTEDTAVYYCSASYYRYDVGAWFAYWGQGTLVTVSS
VL: DIVLTQSPDSLAVSLGERATINCRASKSVSTSGYSYIYWYQQKPGQPPKLLIYLASILESGVPDRFSGSGSGTDFTLTISSLQAEDVAVYYCQHSRELPWTFGQGTKVEIK
notes: also called hB-F5; H37L/L4L IgG1
B2: humanized B-F5 version H37L/L4M (antibody, IgG1, V domains shown)
VH: B1 VH
VL: B1 VL with L4M
notes: also called hB-F5; H37L/L4M IgG1
B3: humanized B-F5 version H37V/L4M (antibody, V domains shown)
VH: B1 VH with L37V
VL: B1 VL with L4M
notes: also called hB-F5
B4: humanized B-F5 version H37V/L4L (antibody, V domains shown)
VH: B1 VH with L37V
VL: B1 VL
notes: also called hB-F5

These binders were tested against T1, soluble CD4 (human, UniProt P01730 26-396) (assay: competitive ELISA against biotinylated mB-F5 on coated soluble CD4, 37 C 2 hours).
T1 construct: extracellular domain
Procedure: Culture supernatants of transfectomas producing the four versions of hB-F5 were collected, and concentrated. The different antibodies were purified from culture supernatants by affinity chromatography using protein A Sepharose and assessed for their CD4 binding activity by measuring, by means of competitive ELISA, their inhibitory activities against the binding of biotinylated mB-F5 to soluble CD4 coated on microtiter plates. Incubation time is 2 hours for 37 C and overnight for 4 C.

In order of rising “Relative binding activity (% of mB-F5)” value:
1. B3  10 % of mB-F5
2. B4  10 % of mB-F5
3. B1  30 % of mB-F5
4. B2  30 % of mB-F5
